# Laboratory results from the supplement of paper PMC9170038.
# System: MS2 coat protein
# Assay: apparent KD of MS2 coat protein; designed switch direction (-1 OFF switch, 1 ON switch): -1; higher = weaker reporter binding
# Procedure, shortened: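 Designed RNA switches with common flanks were transcribed on Illumina chips by stalled E. coli RNA polymerase and titrated with SNAP-549-labelled MS2 coat protein, from 0.7 or 1.5 nM doubling to 3 µM, in Tris-HCl pH 7.5 buffer with KCl, MgCl2, BSA, DTT, tRNA and Tween-20. Steps lasted 0.8–1.5 h (lowest) to 10–20 min (highest). Titrations ran without input, with 200 uM small-molecule ligand, or with an oligonucleotide input. Normalised cluster fluorescence was curve-fitted, and apparent KD is the per-design median over clusters.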
# [1] = input ligand: microRNA oligo, concentration not stated
# [2] = Eterna round: R95, input ligand: FMN 200 uM
# [3] = Eterna round: R95, input ligand: microRNA oligo, concentration not stated
# [4] = Eterna round: R95, input ligand: none
Sequence,apparent KD of MS2 coat protein (input ligand: FMN 200 uM),apparent KD of MS2 coat protein [1],apparent KD of MS2 coat protein (input ligand: none),apparent KD of MS2 coat protein [2],apparent KD of MS2 coat protein [3],apparent KD of MS2 coat protein [4]
"AAAAAAAAGAUAGGAUAUUAGAAAAAAAUGGUGAUAGAGACAUGAGGAUCACCCAUGUAAAAAAAUAAGAAGGGUCAAAAAAAA [AK ExNG2-V2-5] (Eterna round: R96, puzzle: Exclusion NG 2)",322 nM,298 nM,362 nM,–,–,–
"AAAAAACAUGAGGAUCACCCAUGUGAGGAUAUGAUGCGAAUAAAGAAAGAAGAAAGCAUCAGAAGGCACAUAUG [Mod of Disincluded 3 (little more stable fmn state)] (Eterna round: R96, puzzle: Exclusion 1)",–,66.6 nM,–,–,–,–
"AAAAAGGCAGGAUAUACGAGUCAAAGAAAAGACAAAAAGGGACAUGAGGAUCACCCAUGUAGAAGGGCCAAAAA [Fiskers exclusion D2 62% 4] (Eterna round: R96, puzzle: Exclusion 2)",–,31.9 nM,–,–,–,–
AAAAAGGUAGGAUAUACGAAAAAAAAGGGUAGAAAAAAAACACAUGAGGAUCACCCAUGUAGAAGGACCAAAAG [salish99_ex2_r3_045] (puzzle: Exclusion 2),–,–,–,58.7 nM,32 nM,28.4 nM
"AAAACGGUUCUCGUGAGGUACAUGAGGAUCACCCAUGUGAGUCAGGAUAUCCCGUCCAAGUGCGAGGAGAAGGGACGCACUUGG [Esesence] (Eterna round: R96, puzzle: Exclusion NG 3)",190 nM,103 nM,110 nM,–,–,–
"AAAAGAUAAGGAUAUUGAAGGUUCGACAUGAGGAUCACCCAUGUUAUGUUGGAAAAGGGACAAGAAGGUAUGAAAU [salish99_ex5_r4_202] (Eterna round: R97, puzzle: Exclusion 5)",28.6 nM,–,29.1 nM,–,–,–
AAAAGUCCGGAGGAUAUCCACAAGCUCGGGAAAGGAGAAGGCCGGACAUGAGGAUCACCCAUGUGUCUUCUUGC [Rebila] (puzzle: Exclusion 6),–,–,–,358 nM,63 nM,94.5 nM
"AAAAGUUAAGGAUAUACUUGAGGAUCACCCAAGUAGGUGGCUUCAGCCGGGAAACGGCGUAGAAGGUAGCAGAA [Atorin] (Eterna round: R97, puzzle: Exclusion 3)",65.2 nM,–,60.5 nM,–,–,–
"AAAAUACAAGCAAGAUCCUACAUGAGGAUCACCCAUGUGCUCGUCUUAUAAAGUACUAUCACGAAAGUGAUAGUACA [Mat - Sensor v3 - turn-off var 1 - Eli Mod - D59] (puzzle: Sensor v3, turn-off variant 1)",–,–,–,256 nM,43.1 nM,415 nM
AAAAUGGUCUAGGAUAUGACAAAUCUGAUCACGUCAGAAGGAGACACAUGAGGAUCACCCAUGUGGGUGCGAAA [Qureenan] (puzzle: Exclusion 6),–,–,–,130 nM,44.4 nM,39.5 nM
"AAACACGGAGGAUAUACAGGUUCAGGAAACCGAACCGGCUGACAUGAGGAUCACCCAUGUAGAAGGCCGAAAUA [EX2 A.23] (Eterna round: R97, puzzle: Exclusion 2)",19.5 nM,–,20.9 nM,–,–,–
"AAACAGGGAGGAUAUACAUGAGGAUCACCCAUGUUCGAGCGUCCUUGAGCUACCUCAGGUAGAAGGCCCAAAAG [Qubeon] (Eterna round: R97, puzzle: Exclusion 3)",151 nM,–,32.9 nM,–,–,–
"AAACCAAUAGUCAGGAUAUCUUAGUCGCGGAUGUGGGAGAAGGGACAUGAGGAUCACCCAUGUGGGAGUAUGUG [Eternabot (L1) Solution 19] (Eterna round: R97, puzzle: Brourd's mod of Exclusion 4)",116 nM,–,122 nM,–,–,–
"AAACCCGCGCGAGGAUAUCACAUGAGGAUCACCCAUGUGGCACUCCGUCACCGGGCAGUCCCGAGUGAGAAGGUGCAGGCGGAA [Entereis] (Eterna round: R96, puzzle: Exclusion NG 2)",27.5 nM,32.4 nM,23.4 nM,–,–,–
"AAACCUAAUGUUAGGAUAUGCUUCGGGCUUCCGCUGCAGAAGGAACAUGAGGAUCACCCAUGUCAAAUAAAAUC [JL-BMX4-4.39 ViennaUCT mod] (Eterna round: R97, puzzle: Brourd's mod of Exclusion 4)",81.8 nM,–,17.6 nM,–,–,–
"AAACGGCAUAGAGGAUAUGCUUACCUGGGUCGUCUUCAAACAUGAGGAUCACCCAUGUAGUCGACGCAGAAGGUUAUCAAAGCC [ExNG2 2nd] (Eterna round: R96, puzzle: Exclusion NG 2)",16 nM,12.2 nM,17.9 nM,–,–,–
AAACGUGCGAAGGAUAUCCAUCCACCCUGGAAAGGAGAAGGUCGCACAUGAGGAUCACCCAUGUGUGCCUAAAA [Zalave] (puzzle: Exclusion 6),–,–,–,26.6 nM,11.4 nM,11.8 nM

Sequence,apparent KD of MS2 coat protein (input ligand: FMN 200 uM),apparent KD of MS2 coat protein [1],apparent KD of MS2 coat protein (input ligand: none),apparent KD of MS2 coat protein [2],apparent KD of MS2 coat protein [3],apparent KD of MS2 coat protein [4]
AAAGAACAUGAGGAUCACCCAUGUGAGGAUAUCGAGAAAAGAAAGAAGAAGAAGAAAACGAGAAGGCACAAGAA [The design that might work] (puzzle: Exclusion 1),–,–,–,43.7 nM,65 nM,56.9 nM
AAAGAACAUGAGGAUCACCCAUGUGAGGAUAUGUAAGGAUUGUGGAGAAGAAGAGAGAACAGAAGGCACGGAGG [JR_Exclu1_Sub068] (puzzle: Exclusion 1),–,–,–,36.8 nM,32.1 nM,44.9 nM
"AAAGAAGAGAGAAAAUAACACAUGAGGAUCACCCAUGUGAGAAGUUGAGGGUGAUACAGGCUUUAUGCUCGUCUUAU (puzzle: Sensor v3, turn-off variant 1)",–,–,–,173 nM,204 nM,–
AAAGACAGAGGAUAUGCACGCCGACCCGGGCGGGAAGUCGGACAUGAGGAUCACCCAUGUAGAAGGCUGAGAAA [Exclss2-VII] (puzzle: Exclusion 2),–,–,–,–,10.5 nM,–
AAAGAGCGAGGAUAUGCGUGCCGGUGCGGCCAGCCGAUGUGACAUGAGGAUCACCCAUGUAGAAGGCGCAGAAA [Excls2-VIII] (puzzle: Exclusion 2),–,–,–,–,12.8 nM,–
"AAAGGCUCAGGAUAUGCCCAGGAAGACAUGAGGAUCACCCAUGUACUACGGGUGUCAUACGCAGAAGGGAGAUAGA [EX5 C.28] (Eterna round: R97, puzzle: Exclusion 5)",25.1 nM,–,28.7 nM,–,–,–
"AAAUAAAAACAAGCAAAACACAUGAGGAUCACCCAUGUAAAGGGUGAAGUUCGCACCCAAAAAUAAAAUAAAUAAAA [another turnoff var 1st] (Eterna round: R96, puzzle: Sensor v2, turn-off variant)",26.7 nM,29.8 nM,24.9 nM,–,–,–
"AAAUAAAACAAGCAAUAAAACAUGAGGAUCACCCAUGUAAAGGGUGAAGUUCGCACCCAAAAAUAAAAUAAAUAAAA [Denovo Take 6, 5] (Eterna round: R96, puzzle: Sensor v2, turn-off variant)",22.1 nM,39.6 nM,25 nM,–,–,–
"AAAUAACAAGCGAGAUCCUACAUGAGGAUCACCCAUGUGCUCGUCUUAACAAGUACUAUCACGAAAGUGAUAGUACA [Mat - Sensor v3 - turn-off var 1 - Eli Mod - D69] (puzzle: Sensor v3, turn-off variant 1)",–,–,–,17.5 nM,59.4 nM,12.1 nM
"AAAUACAAGUAAAGAUCUUACAUGAGGAUCACCCAUGUGCUCGUCUUAUAAAGUACUAUCACGAAAGUGAUAGUACA [Sensor 3, v1 - 25] (puzzle: Sensor v3, turn-off variant 1)",–,–,–,15.9 nM,159 nM,18.4 nM
"AAAUAGGGAGGAUAUCCAAUAUAUGACAUGAGGAUCACCCAUGUUUCCACUCGUACCUCCGGAGAAGGCCCAUAAU [Ex5 #2] (Eterna round: R97, puzzle: Exclusion 5)",25.8 nM,–,23.9 nM,–,–,–
"AAAUUGGUAGAGGAUAUUGUACAGGAAACGGUGCGAGAAGGUUGCACAUGAGGAUCACCCAUGUUUAGUUGCGA [EX6 #47] (Eterna round: R97, puzzle: Exclusion 6)",27.2 nM,–,32.4 nM,–,–,–
"AACAAGUCAGGAUAUGCCCUGAUAGACUUGAGGAUCACCCAAGUAAGUCUAUCUGGCUAAGCAGAAGGGACAAAAG [Usrabe] (Eterna round: R97, puzzle: Exclusion 5)",643 nM,–,649 nM,–,–,–
"AACAGAAAAGAAAUAAAUAACAUGAGGAUCACCCAUGUCAACGGGUAAGAGCUCAACGAGCUGCGAGUCUUACUCAA [Enreaerre] (Eterna round: R96, puzzle: Sensor v2, turn-off variant)",25.7 nM,17.5 nM,24.7 nM,–,–,–
"AACAGGUCAGGAUAUACAUGAGGAUCACCCAUGUAGACUUCUAGUCUACCGAGGCUGUGUAGAAGGGACCUGAA [Exclusion 3 (MOD4 of #98 Marzena11)] (Eterna round: R97, puzzle: Exclusion 3)",175 nM,–,43.3 nM,–,–,–
"AACAGUCCUUAGGAUAUGUGCGAUUAAUAUCGUGCAGAAGGAUGGACAUGAGGAUCACCCAUGUAAAUACUACC [Omei Ex6 A17] (Eterna round: R97, puzzle: Exclusion 6)",62.6 nM,–,20.9 nM,–,–,–
"AACCGGCGGACCGAAGCUUUUUGCUUGUUUUAUACUACAACAUGAGGAUCACCCAUGUGGUGGUGGUCCGUUGUAGA [Bitein] (puzzle: Sensor v3, turn-off variant 2)",–,–,–,47.9 nM,16.1 nM,52.9 nM
